Results: the supplement of paper PMC10724198
± gives the standard deviation of the averaged measurements.

test system: Saccharomyces cerevisiae; experiment: protein stability index of tFT-peptide fusion (C-terminal peptide) (PSI (0-1 scale)); higher = more stable (slower turnover); conditions: genetic background: wild type; temperature: 30 C
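Note: PSI is a weighted mean of sequencing reads over stability bins, variants kept only with over 10 reads, mCherry proximal and sfGFP distal, peptide attached via GGGS linker.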

Sequence	protein stability index
VGRVGEGGGGRG	0.679 ± 0.046
VGRWCCELVWGV	0.645 ± 0.022
VGRWVLEARGVV	0.715 ± 0.031
VGSGKYGVVGVG	0.518 ± 0.029
VGSMRRYCRTKI	0.792 ± 0.25
VGSPLSVCLSSR	0.702 ± 0.012
VGSSRRGCSGAE	0.685 ± 0.024
VGVQLLLSAWEK	0.715 ± 0.066
VGVSGVCGDWAM	0.67 ± 0.05
VGVSWSMYCANW	0.631 ± 0.11
VGVVGGSWEVVG	0.685 ± 0.031
VGVWTGGDVDCH	0.777 ± 0.086
VGWLCVLGGAQR	0.762 ± 0.045
VGWRVAVGWGLG	0.691 ± 0.083
VHFISPACSPPT	0.673 ± 0.058
VHLYGRTAGRGV	0.816 ± 0.06
VHRYGGFRGEMS	0.702 ± 0.08
VHSGSVDVSSFS	0.697 ± 0.018
VHSSWRVAACGK	0.698 ± 0.031
VHVLLSGVICAL	0.471 ± 0.061
VIAEHCSKQGLI	0.639 ± 0.018
VIGGGRVLGIGG	0.653 ± 0.1
VIGGRQGVVRHR	0.68 ± 0.025

Sequence	protein stability index
VIGIRNGADMSI	0.667 ± 0.013
VIPLSARGEEGD	0.7001 ± 0.0035
VIPTYESNDRQS	0.652 ± 0.064
VIQVRDLRLFSR	0.734 ± 0.028
VIRPMTVYSVVS	0.515 ± 0.029
VIRSLPSSALPL	0.662 ± 0.08
VITYKKKNTRKQ	0.673 ± 0.093
VKIYSSPFFCLI	0.57 ± 0.011
VKLSVITGCRVT	0.659 ± 0.092
VKSSIGWLKVGF	0.671 ± 0.15
VKSSSCSVLRSL	0.7 ± 0.038
VKTETNTDGKKR	0.67 ± 0.15
VKVAFSIASRVD	0.79 ± 0.0028
VLAGFVLNDWVP	0.731 ± 0.023
VLCRPLLPTSRL	0.772 ± 0.02
VLDRGGAGAVCV	0.649 ± 0.024
VLFATLHVMALK	0.55 ± 0.026
VLFDGSWSGSYL	0.741 ± 0.15
VLGFGGVVLFFL	0.642 ± 0.06
VLGGGLGVLTWV	0.753 ± 0.018
VLGGSGFAGSPS	0.659 ± 0.014
VLGLGSGGVCGG	0.693 ± 0.023
VLGRLRGGRDRV	0.723 ± 0.023

Sequence	protein stability index
VLGSVGGFVQRD	0.677 ± 0.036
VLGVFFGSVEGC	0.68 ± 0.05
VLLFALSPHPPS	0.724 ± 0.024
VLLPRIRPSYSL	0.674 ± 0.045
VLLRLVGLCQYL	0.50067 ± 0.0004
VLLSFLHLTASS	0.606 ± 0.03
VLPGCFSISAPP	0.7038 ± 0.0062
VLPLFSSFSRSP	0.674 ± 0.058
VLPPPPTRPLLP	0.743 ± 0.019
VLPRVLADVRST	0.685 ± 0.03
VLPTHCPPPSSR	0.715 ± 0.017
VLRGMSVFGLGE	0.74 ± 0.14
VLRGVNGLRCRS	0.6863 ± 0.0046
VLRIIMQCVFVR	0.549 ± 0.0064
VLRLGFYNINKL	0.676 ± 0.075
VLRVSRHLKAVK	0.65 ± 0.024
VLSFALGSAGGR	0.678 ± 0.069
VLSLCLSVRSFV	0.562 ± 0.017
VLSLHPRRATLL	0.615 ± 0.03
VLSVETGTSGLF	0.655 ± 0.01
VLTPLWIANTFL	0.673 ± 0.057
VLVAWWGLGGGV	0.637 ± 0.069
VLWLGSFKSPRR	0.727 ± 0.022

Sequence	protein stability index
VMGAGGRTVAEW	0.719 ± 0.019
VMGIGAAVRRVR	0.713 ± 0.02
VMVGRVLEKGVV	0.654 ± 0.069
VMVMELHGYPVV	0.655 ± 0.044
VMVVVGLQGTMV	0.5962 ± 0.0032
VNCAYCRERKRD	0.7209 ± 0.0031
VPCCSAVDLLVS	0.5999 ± 0.0045
VPCYSSACHGDA	0.669 ± 0.1
VPFYHIFPPFRP	0.777 ± 0.088
VPFYSPPCYSCL	0.628 ± 0.04
VPLRVSLGCDAF	0.67 ± 0.04
VPPASLVCLTSP	0.667 ± 0.0015
VPPNTLTAPHLF	0.844 ± 0.046
VPPPSPTLSPHP	0.656 ± 0.28
VPPPTAPVPPRP	0.749 ± 0.096
VPRPPPHPPGDV	0.622 ± 0.016
VPRTFQDLLPAP	0.707 ± 0.04
VPSLFLYGNPMY	0.71 ± 0.036
VPSLPSPCSSCA	0.667 ± 0.046
VPSRTVTGTLPA	0.681 ± 0.026
VPSVCPFLSVLL	0.647 ± 0.035
VPSVGFSVHLLP	0.692 ± 0.021
VPVAAVGGGECG	0.575 ± 0.044

Sequence	protein stability index
VPWGGLRFRDWW	0.659 ± 0.099
VPYGKILQQGDI	0.658 ± 0.048
VQEEGYYLHSSL	0.699 ± 0.021
VQLGLGPDSSRS	0.694 ± 0.019
VQSGIRLIFGRA	0.545 ± 0.014
VQVSGFPHSRTR	0.691 ± 0.023
VQYGHIVKGWCS	0.697 ± 0.013
VRAAAFCFVRFR	0.55 ± 0.021
VRAEVSNVDYVS	0.658 ± 0.0096
VRALCRYRTVNG	0.685 ± 0.035
VRAVFPRSGLSC	0.696 ± 0.048
VRCRLLDVGDAS	0.642 ± 0.026
VRCSAASLKVRK	0.675 ± 0.01
VRDRTSRGMRPA	0.6945 ± 0.0043
VRDTTRTEKLGP	0.687 ± 0.002
VREGKDREVSGF	0.715 ± 0.031
VREKNHTLQMET	0.646 ± 0.017
VRGGGRRACVVG	0.607 ± 0.05
VRGGLVGRSVGC	0.559 ± 0.08
VRGKGWRVGWWG	0.668 ± 0.045
VRGRQGGGVGRA	0.682 ± 0.1
VRHLGAIPQLSG	0.637 ± 0.095
VRHSLFPCPSPT	0.714 ± 0.035

Sequence	protein stability index
VRHSPVVPANRP	0.698 ± 0.094
VRIRRNGAVSFM	0.6829 ± 0.0038
VRITRPFKAPTP	0.711 ± 0.0056
VRLWLSLRLGFS	0.587 ± 0.068
VRNASEDSVGQL	0.708 ± 0.046
VRNESGGRAAAS	0.6988 ± 0.0016
VRQLRGPWMEYP	0.682 ± 0.076
VRRGAAGDDWGW	0.869 ± 0.057
VRRGCGVGACPG	0.618 ± 0.017
VRRILLGPPGRD	0.653 ± 0.085
VRRMLSSLIEGH	0.619 ± 0.0072
VRRSHSGSNDVP	0.673 ± 0.14
VRSCCFFLDAVW	0.665 ± 0.029
VRSCFPVGMVWR	0.72087 ± 0.00045
VRSLSSPPAPAT	0.736 ± 0.038
VRSPLEHTVPFS	0.655 ± 0.057
VRSRRQLPPADP	0.723 ± 0.083
VRSYLARFEVYV	0.531 ± 0.019
VRTSWRHESIKK	0.618 ± 0.019
VRVRPAVRSGPE	0.616 ± 0.006
VSCFVWFGFSCI	0.5202 ± 0.0034
VSCPGWVVHVIV	0.48 ± 0.079
VSDLFWAELIGN	0.71 ± 5.7e-06

Sequence	protein stability index
VSGGRQGGWGGW	0.691 ± 0.034
VSGWDCEGDWVA	0.76 ± 0.0096
VSLGHCGFYSRV	0.648 ± 0.039
VSLLSSDTRSAY	0.753 ± 0.07
VSLPTAPFPLPS	0.844 ± 0.084
VSLVYLDHLSRS	0.702 ± 0.029
VSPLVRVFSCAI	0.598 ± 0.033
VSQKQALVCPRI	0.705 ± 0.085
VSRGRSAKKSAI	0.695 ± 0.06
VSRTVLSSDHRG	0.752 ± 0.076
VSRYRQWGSWER	0.649 ± 0.013
VSSRHNCFRHGS	0.696 ± 0.039
VSTLAPPQLQFK	0.669 ± 0.081
VSVGCLFVVGRG	0.713 ± 0.039
VSWVYNFKKIRS	0.694 ± 0.078
VTCADEYYHSRR	0.686 ± 0.03
VTECLRQWERLG	0.545 ± 0.045
VTFTERIAIEWD	0.703 ± 0.054
VTGIDGGSLCLR	0.6842 ± 0.0059
VTGRTGGMWGAL	0.754 ± 0.085
VTKNRHRQTETQ	0.658 ± 0.036
VTLSPSLPGFPL	0.6839 ± 0.00089
